Source: PMC2834734

Biological target: myc tagged version of gp96 (UniProt P14625)
Assay: pull-down; gp96-myc held on anti-myc agarose beads (Pierce c-Myc Tag IP/Co-IP kit); mixed with 10^8 DRP of purified BAAV or AAV4 vector; 4 °C for 1 h; extensive washes with TBS-T in spin columns; bound vector DNA quantified by qPCR; fold change relative to vector bound to GFP beads; n = 3

Sequence of UniProt P14625 (P14625 22-803): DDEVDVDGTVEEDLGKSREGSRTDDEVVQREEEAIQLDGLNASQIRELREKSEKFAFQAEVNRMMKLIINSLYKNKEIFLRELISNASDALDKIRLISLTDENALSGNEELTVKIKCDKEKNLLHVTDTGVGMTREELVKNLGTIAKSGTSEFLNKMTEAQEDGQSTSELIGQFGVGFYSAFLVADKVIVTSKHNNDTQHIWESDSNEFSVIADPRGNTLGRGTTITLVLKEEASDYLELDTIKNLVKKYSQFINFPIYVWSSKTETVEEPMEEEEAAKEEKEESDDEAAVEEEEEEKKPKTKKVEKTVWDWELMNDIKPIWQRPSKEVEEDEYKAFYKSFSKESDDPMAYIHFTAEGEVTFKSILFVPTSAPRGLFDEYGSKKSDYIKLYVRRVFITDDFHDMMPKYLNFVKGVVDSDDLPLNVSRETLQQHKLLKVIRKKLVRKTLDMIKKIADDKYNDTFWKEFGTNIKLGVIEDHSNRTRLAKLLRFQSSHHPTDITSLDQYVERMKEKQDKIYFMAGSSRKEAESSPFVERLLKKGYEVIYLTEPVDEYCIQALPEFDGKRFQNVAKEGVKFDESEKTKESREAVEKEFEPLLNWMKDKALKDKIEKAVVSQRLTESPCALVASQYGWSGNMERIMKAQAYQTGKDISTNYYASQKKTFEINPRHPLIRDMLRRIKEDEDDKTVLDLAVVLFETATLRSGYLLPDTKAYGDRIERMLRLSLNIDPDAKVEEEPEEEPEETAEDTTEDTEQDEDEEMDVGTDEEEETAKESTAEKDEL

“recombinant bovine adeno-associated virus (BAAV) vector particles containing the CMV-GFP expression cassette (complex)” was tested. Which fold increase in bound vector against control GFP or TRPC1 beads did it give?
Its fold increase in bound vector against control GFP or TRPC1 beads is 2 to 3 fold.
